These results are taken from patent US20190338029A1 (Y BIOLOGICS, published 2019).

Experiment [1] addresses T1, hCD3εγ chains.
T1 construct: copies: 1 + 1
T1 epsilon: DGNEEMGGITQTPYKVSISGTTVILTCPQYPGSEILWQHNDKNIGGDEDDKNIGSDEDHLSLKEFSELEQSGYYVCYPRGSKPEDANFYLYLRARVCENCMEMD
T1 gamma: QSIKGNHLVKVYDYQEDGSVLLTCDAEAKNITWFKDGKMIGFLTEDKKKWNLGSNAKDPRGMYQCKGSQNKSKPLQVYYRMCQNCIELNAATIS
In words: ELISA on hCD3εγ chains, curve fit. Here is the method:
(§1) Next day, plate was washed once with 200 μl of PBST, and then a surface blocking was performed at room temperature with 5% skim milk for 1-2 hours. […] Each well was then washed three times with 200 μl of PB ST to remove unbound samples. Horseradish peroxidase (HRP)-conjugated anti-human IgG (Fab specific) antibodies (Sigma, USA) were added to wells at a ratio of 1:1000 for a reaction at room temperature. After three times of washing with 200 ul of PBST, a color reaction of HRP was induced using TMB solution (GEhealthcare, USA) in a volume of 10 μl/well. The reaction was terminated by using a stop solution (2.5 M H2504, 100 μl/well). A spectrophotometer was used to measure the absorbance at a wavelength of A450 to calculate the binding affinity.

Experiment [2] has as its target T2, CD3 on Jurkat luciferase reporter cells (Homo sapiens (Human), UniProt P07766 23-207; P09693 23-182; P04234 22-171).
T2 construct: also called CD3 positive Jurkat cell line with NFAT luciferase reporter
In words: flow cytometry on Jurkat_NFAT_Luc2P cells, FITC-A; histogram shifted to about 10^3. (In general: A flow cytometer gives signals particle by particle.)

The target of experiment [3] is CD3 (Sino Biological). Kind of experiment: ELISA on CD3, curve fit. As for the experimental part: as §1
For orientation: An ELISA detects its analyte on a solid surface through an enzyme-linked reagent.

The target of experiment [4] is T3, PD-L1 (PD-1/PD-L1 Blockade Bioassay kit, Promega) (UniProt Q9NZQ7 19-290, limits assumed). Kind of experiment: cell-based or functional assay.
T3 sequence (Q9NZQ7 19-290 limits assumed): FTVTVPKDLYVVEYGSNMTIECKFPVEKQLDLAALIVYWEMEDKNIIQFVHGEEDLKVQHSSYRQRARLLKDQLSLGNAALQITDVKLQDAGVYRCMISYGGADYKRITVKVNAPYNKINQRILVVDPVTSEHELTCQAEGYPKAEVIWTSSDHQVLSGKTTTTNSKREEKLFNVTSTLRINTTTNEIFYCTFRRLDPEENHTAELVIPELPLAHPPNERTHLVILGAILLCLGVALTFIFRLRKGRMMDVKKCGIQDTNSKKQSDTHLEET
The target of experiment [5] is T4, hCD3εε chains.
T4 epsilon: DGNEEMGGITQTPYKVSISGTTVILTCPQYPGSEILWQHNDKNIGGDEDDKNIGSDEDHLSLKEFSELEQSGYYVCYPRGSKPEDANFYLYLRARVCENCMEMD
In words: ELISA on hCD3εε chains. As for the experimental part:
as §1

For experiment [6], the target named is T1, hCD3εγ chains. In words: ELISA on hCD3εγ chains, curve fit of a flat curve. As for the experimental part: as §1
The target in experiment [7] is T5, human PD-L1 (human, UniProt Q9NZQ7 19-238, limits assumed).
T5 construct: also called hPD-L1
T5 sequence (Q9NZQ7 19-238 limits assumed): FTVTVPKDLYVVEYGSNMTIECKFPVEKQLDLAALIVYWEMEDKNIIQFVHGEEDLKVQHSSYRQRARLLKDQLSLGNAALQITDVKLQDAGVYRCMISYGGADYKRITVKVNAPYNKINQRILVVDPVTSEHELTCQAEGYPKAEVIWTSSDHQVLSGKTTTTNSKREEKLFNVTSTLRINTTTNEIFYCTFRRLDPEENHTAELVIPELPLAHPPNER
Kind of experiment: label-free kinetics on OCTET QKe, PD-L1 on AHC biosensor; PD-L1 fixed on AHC biosensor (OCTET QKe). As for the experimental part: (§2) Measurement of label-free kinetics (protein-protein interaction) using OCTET® QKe system (ForteBio, USA) was performed by using an anti-human IgG capture (AHC) biosensor (ForteBio, USA) for human PD-L1 and amine reactive (ARG2) biosensor for CD3εδ chains. […] Sensorgrams were collected over time.

Experiment [8] addresses T3, PD-L1 (PD-1/PD-L1 Blockade Bioassay …). Kind of experiment: cell-based or functional assay. This is another data set of the same source.
Experiment [9] has as its target T5, human PD-L1. In words: label-free kinetics on OCTET QKe (called SPR in the text), PD-L1 on AHC biosensor. As for the experimental part: as §2

A value given as a limit tells only on which side of the number the result lay.

B1: UCHT1 (an anti-CD3 antibody from BioLegend, USA) (antibody, V domains shown)
VH: EVQLQQSGPELVKPGPSMKISCKASGYSFTGYTMNWVKQSHGKNLEWMGLINPYKGVSTYNQKFKDKATLTVDKSSSTAYMELLSLTSEDSAVYYCARSGYYGDSDWYFDVWGQGTTLTVFS
VL: DIQMTQTTSSLSASLGDRVTISCRASQDIRNYLNWYQQKPDGTVKLLIYYTSRLHSGVPSKFSGSGSGTDYSLTISNLEQEDIATYFCQQGNTLPWTFAGGTKLEIKR
notes: Bought antibody; also called parental anti-CD3 antibody
As a reminder, the Kd is the constant that tells how readily two partners part at equilibrium. A high value points to a looser complex. B1: the Kd in experiment [1] is 33300 pM. Besides, the Fold in experiment [2] was 35 fold over hIgG. Further, in experiment [3], the Bmax was 3.67 O.D. 450 nm and binding was put at a Kd of 2700 pM.

B2: ACE-05 (bispecific antibody)
heavy 1: not shown
heavy 2: not shown
light: QLVLTQPPSVSGAPGQRVTISCTGSSSNIGAGYDVHWYQQLPGAAPKLLIYGDINRPSGVPDRFSGSKSGISASLAITGLQAEDEADYYCQSYDSSLSGGVFGGGTKLTVLRTVAAPSVFIFPPSDEQLKSGTASVVCLLNNFYPREAKVQWKVDNALQSGNSQESVTEQDSKDSTYSLSSTLTLSKADYEKHKVYACEVTHQGLSSPVTKSFNRGEC
notes: Contains a GGGGS linker between the hinge and the Fv; also called ALiCE molecule ACE-05
With B2, the “EC50; luciferase RLU in the PD-1/PD-L1 Blockade Bioassay, blocked partner PD-1” value in [4] turned out to be 4.29 pM. The binding result in [5] is “no binding (tested: 100 nM)”. In addition, the “Kd (fit value of a flat curve)” value in [6] was found to be 35 pM. Moreover, the Kd in [7] is less than 10.9 pM. In experiment [3], this molecule showed a Bmax of 3.97 O.D. 450 nm and a dissociation constant (Kd) of 17600 pM. Also, the “EC50 (read off the curve); luciferase RLU in the PD-1/PD-L1 Blockade Bioassay, blocked partner PD-1” value (“EC50 (read off the curve)” for short) in experiment [8] is roughly 0.02 µg/mL.

B3: ACE-09 (bispecific antibody)
heavy 1: not shown
heavy 2: not shown
light: QLVLTQPPSVSGAPGQRVTISCTGSSSNIGAGYDVHWYQQLPGAAPKLLIYGDINRPSGVPDRFSGSKSGISASLAITGLQAEDEADYYCQSYDSSLSGGVFGGGTKLTVLRSVAAPSVFIFPPSDEQLKSGTASVVCLLNNFYPREAKVQWKVDNALQSGNSQESVTEQDSKDSTYSLSSTLTLSKADYEKHKVYACEVTHQGLSSPVTKSFNRGEC
In experiment [3], B3 showed a Bmax of 4.04 O.D. 450 nm and a Kd of 21100 pM.

B4: ACE-05-VL2 (other)
heavy: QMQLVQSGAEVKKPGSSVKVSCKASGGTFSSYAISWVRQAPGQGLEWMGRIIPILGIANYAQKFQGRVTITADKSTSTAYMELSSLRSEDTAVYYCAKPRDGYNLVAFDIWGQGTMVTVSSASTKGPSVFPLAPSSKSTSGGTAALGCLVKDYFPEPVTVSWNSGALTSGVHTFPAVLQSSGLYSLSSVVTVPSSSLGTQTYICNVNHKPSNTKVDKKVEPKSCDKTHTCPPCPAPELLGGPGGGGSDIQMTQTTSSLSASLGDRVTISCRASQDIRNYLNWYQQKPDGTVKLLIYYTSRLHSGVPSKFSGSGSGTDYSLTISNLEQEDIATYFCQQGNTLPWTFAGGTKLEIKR
light: QLVLTQPPSVSGAPGQRVTISCTGSSSNIGAGYDVHWYQQLPGAAPKLLIYGDINRPSGVPDRFSGSKSGISASLAITGLQAEDEADYYCQSYDSSLSGGVFGGGTKLTVLRTVAAPSVFIFPPSDEQLKSGTASVVCLLNNFYPREAKVQWKVDNALQSGNSQESVTEQDSKDSTYSLSSTLTLSKADYEKHKVYACEVTHQGLSSPVTKSFNRGEC
As for B4, the “EC50 (read off the curve)” value in [8] was roughly 0.08 µg/mL.

B5: YBL-007 (antibody, V domains shown)
VH: QMQLVQSGAEVKKPGSSVKVSCKASGGTFSSYAISWVRQAPGQGLEWMGRIIPILGIANYAQKFQGRVTITADKSTSTAYMELSSLRSEDTAVYYCAKPRDGYNLVAFDIWGQGTMVTVSS
VL: QLVLTQPPSVSGAPGQRVTISCTGSSSNIGAGYDVHWYQQLPGAAPKLLIYGDINRPSGVPDRFSGSKSGISASLAITGLQAEDEADYYCQSYDSSLSGGVFGGGTKLTVLR
notes: also called parental anti-PD-L1 antibody; anti-hPD-L1 antibody
Turning to B5, the “EC50; luciferase RLU in the PD-1/PD-L1 Blockade Bioassay, blocked partner PD-1” value in experiment [4] was 11.2 pM. For the same molecule, in experiment [8], the “EC50 (read off the curve)” value is roughly 0.05 µg/mL. This molecule also returned a Kd in experiment [9] of 13.2 pM.
